Binding result and Kd data for 24 molecules are collected here from US20200377595A1 (Chugai, published 2020).

First the molecules themselves.
T1: biotin-labeled cynomolgus monkey CD137 fused to human IgG1 Fc fragment (cynomolgus monkey; human, UniProt Q07011 24-186, limits assumed, biotin-labeled)
T1 construct: also called cyno CD137-Fc; not shown: human IgG1 Fc fragment
T1 chain: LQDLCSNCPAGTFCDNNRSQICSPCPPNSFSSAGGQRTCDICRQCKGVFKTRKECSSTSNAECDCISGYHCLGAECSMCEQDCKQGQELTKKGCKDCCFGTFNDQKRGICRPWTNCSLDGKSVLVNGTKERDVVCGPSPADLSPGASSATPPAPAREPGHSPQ

B1: dBBDu197 (antibody, IgG1, V domains shown)
VH: QVQLVESGGGLVQPGRSLRLSCAASGFTFSNAWMHWVRQAPGKGLEWVAQIKDRSNAYAAYYAPSVKGRFTISRDDSKNSIYLQMNSLKTEDTAVYYCHYVHYASASTVLPAFGVDAWGQGTTVTVSS
VL: DIVMTQSPLSLPVTPGEPASISCRSSQSLVHSNRNTYLHWYQQKPGQAPRLLIYKVSNRFSGVPDRFSGSGSGTDFTLKISRVEAEDVGVYYCGQGTQVPYTFGQGTKLEIK
notes: IgG1
B2: dBBDu179 (antibody, IgG1, V domains shown)
VH: B1 VH with A57Q, A60T
VL: B1 VL
notes: IgG1
B3: dBBDu139 (antibody, IgG1, V domains shown)
VH: QVQLVESGGGLVQPGRSLRLSCAASGFTFSNAWMHWVRQAPGKGLEWVAQIKDRGNAYNAYYAESVKGRFTISRDDSKNSIYLQMNSLKTEDTAVYYCRFVHYRHPLLHIQYGVDAWGQGTTVTVSS
VL: B1 VL
notes: IgG1
B4: dBBDu174 (antibody, IgG1, V domains shown)
VH: QVQLVESGGGLVQPGRSLRLSCAASGFTFSSAWMHWVRQAPGKGLEWVAQIKDRASAYNAYYAESVKGRFTISRDDSKNSIYLQMNSLKTEDTAVYYCRYVHYPSYVSFLPYYGVDAWGQGTTVTVSS
VL: B1 VL
notes: IgG1
B5: dBBDu183 (antibody, IgG1, V domains shown)
VH: B1 VH with R54K, S55G
VL: B1 VL
notes: IgG1
B6: dBBDu217 (antibody, IgG1, V domains shown)
VH: QVQLVESGGGLVQPGRSLRLSCAASGFTFSNAWMHWVRQAPGKGLEWVAQIKDRQQGYATYYAPSVKGRFTISRDDSKNSIYLQMNSLKTEDTAVYYCRFVHYHLAGYGYYGVDAWGQGTTVTVSS
VL: B1 VL
notes: IgG1
B7: dBBDu205 (antibody, IgG1, V domains shown)
VH: B1 VH with N56Q, A57L
VL: B1 VL
notes: IgG1
B8: dBBDu199 (antibody, IgG1, V domains shown)
VH: B1 VH with R54K, S55Q, N56S, A57G, A59N, A60T
VL: B1 VL
notes: IgG1
B9: dBBDu202 (antibody, IgG1, V domains shown)
VH: B1 VH with R54K, S55G, A104S, S105A
VL: B1 VL
notes: IgG1
B10: dBBDu173 (antibody, IgG1, V domains shown)
VH: B1 VH with R54K, S55G, A57L, S107G, T108G, V109G, P111S, F113Y
VL: B1 VL
notes: IgG1
B11: dBBDu167 (antibody, IgG1, V domains shown)
VH: B1 VH with R54K, S55G, A57L, S107G, T108G, V109G, A112G
VL: B1 VL
notes: IgG1
B12: dBBDu186 (antibody, IgG1, V domains shown)
VH: B1 VH with A57Q, A60T, S105Q
VL: B1 VL
notes: IgG1
B13: dBBDu196 (antibody, IgG1, V domains shown)
VH: B1 VH with S55G, A59N, P64E
VL: B1 VL
notes: IgG1
B14: dBBDu189 (antibody, IgG1, V domains shown)
VH: B1 VH with V48I, A57Q, A60T, S105Q, T108S, V109L, A112S
VL: B1 VL
notes: IgG1
B15: dBBDu204 (antibody, IgG1, V domains shown)
VH: B1 VH with A57N, A60T, P64E
VL: B1 VL
notes: IgG1
B16: dBBDu222 (antibody, IgG1, V domains shown)
VH: QVQLVESGGGLVQPGRSLRLSCAASGFTISSAWMHWVRQAPGKGLEWVAQIKDRANGYAAYYAPSVKGRFTISRDDSKNSIYLQMNSLKTEDTAVYYCRYVHYATAYDGFYGFGVDAWGQGTTVTVSS
VL: B1 VL
notes: IgG1
B17: dBBDu193 (antibody, IgG1, V domains shown)
VH: B1 VH with A57Q, A60T, A104S, S105A, V109L, A112S
VL: B1 VL
notes: IgG1
B18: NNS6f71 (antibody)
chain 1: QVQLVESGGGLVQPGRSLRLSCAASGFTFSNAWMHWVRQAPGKGLEWVAQIKDKSNNYATYYAESVKGRFTISRDDSKNSIYLQMNSLKTEDTAVYYCRYVHYAAGWVLGSYYGVDAWGQGTTVTVSSASTKGPSVFPLAPSSKSTSGGTAALGCLVKDYFPEPVTVSWNSGALTSGVHTFPAVLQSSGLYSLSSVVTVPSSSLGTQTYICNVNHKPSNTKVDKKVEPKSCDKTHTCPPCPAPEAAGGPSVFLFPPKPKDTLMISRTPEVTCVVVDVSHEDPEVKFNWYVDGVEVHNAKTKPREEQYASTYRVVSVLTVLHQDWLNGKEYKCKVSNKALPAPIEKTISKAKGQPREPQVYTLPPSRCELTKNQVSLSCAVKGFYPSDIAVEWESNGQPENNYKTTPPVLDSDGSFFLVSKLTVDKSRWQQGNVFSCSVMHEALHNHYTQKSLSLSPDYKDDDDK
chain 2: EPKSSDKTHTCPPCPAPELLGGPSVFLFPPKPKDTLMISRTPEVTCVVVDVSHEDPEVKFNWYVDGVEVHNAKTKPREEQYNSTYRVVSVLTVLHQDWLNGKEYKCKVSNKALPAPIEKTISKAKGQPREPQVCTLPPSRDELTKNQVSLWCLVKGFYPSDIAVEWESNGQPENNYKTTPPVLDSDGSFFLYSKLTVDKSRWQQGNVFSCSVMHEALHNRYTQKSLSLSP
chain 3: DIVMTQSPLSLPVTPGEPASISCRSSQSLVHSNRNTYLHWYQQKPGQAPRLLIYKVSNRFSGVPDRFSGSGSGTDFTLKISRVEAEDVGVYYCGQGTQVPYTFGQGTKLEIKRTVAAPSVFIFPPSDEQLKSGTASVVCLLNNFYPREAKVQWKVDNALQSGNSQESVTEQDSKDSTYSLSSTLTLSKADYEKHKVYACEVTHQGLSSPVTKSFNRGEC
B19: NNS6f72 (antibody)
chain 1: B18 chain 1 with G106E, W107G, V108I, L109W, G110W, S111G
chain 2: B18 chain 2
chain 3: B18 chain 3
B20: NNS6f68 (antibody)
chain 1: B18 chain 1 with G106V, W107E, V108W, L109G, G110R, S111W
chain 2: B18 chain 2
chain 3: B18 chain 3
B21: NNS6f73 (antibody)
chain 1: B18 chain 1 with G106W, W107V, L109G, G110V, S111R
chain 2: B18 chain 2
chain 3: B18 chain 3
B22: NNS6f67 (antibody)
chain 1: B18 chain 1 with W107L, V108L, L109R, G110A, S111A
chain 2: B18 chain 2
chain 3: B18 chain 3
B23: CE115HA000 V11L/D72A/L78I/D101Q with GGS inserted between Kabat 99 and 100, one-arm antibody (antibody)
chain 1: QVQLVESGGGLVQPGRSLRLSCAASGFTFSNAWMHWVRQAPGKGLEWVAQIKAKSNNYATYYAESVKGRFTISRADSKNSIYLQMNSLKTEDTAVYYCRYVHYGAGGSYYGVQAWGQGTTVTVSSASTKGPSVFPLAPSSKSTSGGTAALGCLVKDYFPEPVTVSWNSGALTSGVHTFPAVLQSSGLYSLSSVVTVPSSSLGTQTYICNVNHKPSNTKVDKKVEPKSCDKTHTCPPCPAPEAAGGPSVFLFPPKPKDTLMISRTPEVTCVVVDVSHEDPEVKFNWYVDGVEVHNAKTKPREEQYASTYRVVSVLTVLHQDWLNGKEYKCKVSNKALPAPIEKTISKAKGQPREPQVYTLPPSRCELTKNQVSLSCAVKGFYPSDIAVEWESNGQPENNYKTTPPVLDSDGSFFLVSKLTVDKSRWQQGNVFSCSVMHEALHNHYTQKSLSLSPDYKDDDDK
chain 2: B18 chain 2
chain 3: B18 chain 3
B24: CE115HA000 V11L/D72A/L78I/D101Q with GGSGGS inserted between Kabat 99 and 100, one-arm antibody (antibody)
chain 1: B18 chain 1 with D53A, D75A, A104G, W107G, V108S, L109G, D116Q
chain 2: B18 chain 2
chain 3: B18 chain 3

Residue numbers refer to the chain shown, from its start. Numbers in names are those of the source. Where “and” joins values, the source holds several entries; their conditions need not be identical. Equal values may be shown once.

The target in the first assay is T1, biotin-labeled cynomolgus monkey CD137 …. Put plainly: ELISA, IgG. On the technique in general: An ELISA detects its analyte on a solid surface through an enzyme-linked reagent.
Consider B1, for which the binding result is “binds”.

As to B2, the binding result is reported as “binds”. In the case of B3, the binding result is listed as “binds”. Same read-out and setting: the result for B4 reads “binds”; that for B5, “binds”; that for B6, “binds”. The same measure, in the same setting: the result for B7 reads “binds”; that for B8, “binds”.

With B9, the binding result was “binds”.

For the molecule B10, the binding result was “binds”.

Consider B11, for which the binding result is on record as “binds”. Same read-out and setting: the result for B12 reads “binds”.

Consider B13, for which the binding result was “binds”. On the same count and under the same terms, the result for B14 reads “binds”; that for B15, “binds”; that for B16, “binds”. With B17, the binding result is on record as “binds”.

For a further assay, the target named is biotinylated CD3 epsilon epitope peptide. Nature of the assay: SPR, one-arm Ab. On the technique in general: In SPR one partner is held on a chip, and binding of the other changes the refractive index at the surface.
For B18, the dissociation constant (Kd) stood at 51 nM. B19 showed a Kd of 150 nM. Take B20: the Kd came out at 45 nM.

For the molecule B21, the Kd is 26 nM. Molecule B22 gave a Kd of 36 nM.

Another assay has the same target. Put plainly: SPR, method of Ref. Ex. 3, one-arm Ab.
Molecule B23 registered a Kd of 63.1 nM. Still for that read-out and setting: the result for B24 reads 34.6 nM and 31.1 nM.

A word on the Kd: it is the concentration at which binding is half-saturated.
